Measured values published in article PMC11559003.

Columns and labels:
[1] = target: T1, CRP (cAMP receptor protein) (Escherichia coli) (UniProt P0ACJ8); assay: EMSA; settings: EMSA: 10 nM probe, 1x Beyotime EMSA/Gel-Shift Binding Buffer, 25 C 30 min, 6% PAGE at 4 C in 0.5x TBE + 200 uM cAMP; BLI: 10 mM HEPES, 2 mM MgCl2, 0.1 mM EDTA …
T1 sequence: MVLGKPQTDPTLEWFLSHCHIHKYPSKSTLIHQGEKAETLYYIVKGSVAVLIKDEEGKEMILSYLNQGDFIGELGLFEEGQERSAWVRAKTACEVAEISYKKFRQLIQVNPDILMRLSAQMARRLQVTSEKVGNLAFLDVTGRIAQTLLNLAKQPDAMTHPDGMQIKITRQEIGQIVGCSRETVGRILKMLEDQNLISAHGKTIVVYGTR

[2] = system: CRP (cAMP receptor protein) (Escherichia coli); assay: BLI; settings: EMSA: 10 nM probe, 1x Beyotime EMSA/Gel-Shift Binding Buffer, 25 C 30 min, 6% PAGE at 4 C in 0.5x TBE + 200 uM cAMP, BLI: 10 mM HEPES, 2 mM MgCl2, 0.1 mM EDTA …

Row | Substance | binding [1] | Kd ([2]; cAMP + (p)ppGpp) [µM] | Kd ([2]; cAMP, no (p)ppGpp) [µM]
1 | AGCCAGTGGCGATAAGCGGAGTCTGCGAGGACGCTTCCTGAAAATCGTCTTTATTGCAGTGAATGACAGGCAAATGCGGAAGCAGCTACGCAAAACGCAACAACTTTGCGCAAAAAGTGTGAGCAAGGGCTACGTCACATGGCCGCGCCGTGTATAATAAGCTCGTATGTAGGCTTTATTTCGCTAATCACATACGAAAGATACTCATGGCTCAAGGCACGCCTTATCGCCACTGGCT (double strand) [spoT promoter probe] | binds | – | –
2 | relA promoter probe | – | 110 | 13
